Experimental data as given in patent US20090214574A1 (AFFIMED, published 2009).

B1: affinity matured anti-CD16A scFv 4-LS21 (scFv)
scFv: EVQLVQSGAEVKKPGESLKVSCKASGYTFTSYYMHWVRQAPGQGLEWMGIINPSGGSTSYAQKFQGRVTMTRDTSTSTVYMELSSLRSEDTAVYYCARGSAYYYDFADYWGQGTLVTVSSGSASAPTLKLEEGEFSEARVQPVLTQPSSVSVAPGQTATISCGGHNIGSKNVHWYQQRPGQSPVLVIYQDNKRPSGIPERFSGSNSGNTATLTISGTQAMDEADYYCQVWDNYSVLFGGGTKLTVLGQPKAAPSVTLFPPSAAAGSEQKLISEEDLNSHHHHHH
notes: IMAC-purified from pSKK2
B2: human anti-CD16A scFv 50NI (scFv)
scFv: EVQLVQSGAEVKKPGESLKVSCKASGYTFTSYYMHWVRQAPGQGLEWMGIINPSGGSTSYAQKFQGRVTMTRDTSTSTVYMELSSLRSEDTAVYYCARGSAYYYDFADYWGQGTLVTVSSGSASAPTLKLEEGEFSEARVSYELMQPPSVSVSSGQTASIPCSGDKLEEKYVSWYQQRPGQSPVLVIYQDNKRPSGIPERFSGSNSGNTATLTISGTQAMDEADYYCQVWDNYSVLFGGGTKLTVLGQPKAAPSVTLFPPSAAAGSEQKLISEEDLNSHHHHHH
notes: also called clone 50NI; parental clone

Assays:
[1] = molecular target: T1, native CD16B on human polymorphonuclear cells (neutrophilic granulocytes) (human, UniProt O75015 17-200); test: flow cytometry on freshly isolated PMN; scFv, anti-(His)6 MAb, FITC goat anti-mouse IgG; MFI minus secondary reagents alone
T1 construct: whole, on cells; also called PMN; CD16B-positive granulocytes
Method: Polymorphonuclear cells (PMN) and natural killer (NK) cells were isolated from peripheral blood from a healthy donor and used for flow cytometric staining and analysis. […] All scFv were used at a concentration of 50 μg/mL and were detected with 10 μg/mL anti-(His)₆ followed by 15 μg/mL FITC-conjugated goat anti-mouse IgG. The mean fluorescence intensities obtained from flow cytometric analysis were corrected by subtracting the fluorescence values from cell stainings with the secondary reagents alone and were plotted in the diagram.
Enrichment of NK cells was performed by negative selection as described above.

CD16B-Fc^NA1 = molecular target: T2, CD16B-Fc^NA1 (human, UniProt O75015 17-200); test: ELISA on 200 ng coated antigen; scFv, anti-His-HRP (1 µg/ml)
T2 construct: extracellular domain; not shown: Fc region carried by the pSEC plasmid
Method: (§1) FIG. 7: ELISA on different CD16 isoforms. […] An anti-NKp46 scFv used as a primary antibody acted as a negative control.
(§2) Detection of scFv bound to the recombinant proteins was carried out using an anti-His-HRP conjugate (1 μg/ml).

CD16B-Fc^SH = molecular target: T3, CD16B-Fc^SH (human, UniProt O75015 17-200); test: as above
T3 construct: extracellular domain; not shown: Fc region carried by the pSEC plasmid
Method: as §1, §2

CD16B-Fc^NA2 = molecular target: T4, CD16B-Fc^NA2 (human, UniProt O75015 17-200); test: as above
T4 construct: extracellular domain; not shown: Fc region carried by the pSEC plasmid
Method: as §1, §2

NKp46-Fc [2] = molecular target: T5, NKp46-Fc (UniProt O76036 22-258, limits assumed); test: as above
T5 construct: Negative control protein; also called NKp46-Fc control protein; not shown: Fc part, not described
Method: as §1, §2

[3] = molecular target: T6, NKp46 extracellular domain fused to zeta chain, on transiently transfected HEK-293 cells (293/NKp46) (human, UniProt O76036 22-258; P20963 31-164); test: flow cytometry on 293/NKp46 cells; scFv, anti-hexa His MAb 13/45/31-2, FITC goat anti-mouse IgG; MFI minus secondary reagents alone
T6 construct: extracellular domain;domain: transmembrane and cytoplasmic domain; On the cell surface; also called NKp46-transfectants; pcDNA3-NKp46-zeta
Method: (§3) The mean fluorescence intensities obtained from flow cytometric analysis were corrected by subtracting the fluorescence values from cell stainings with the secondary reagents alone, and plotted in the diagram.
(§4) For flow cytometric analysis, the following cell lines were used: BW and BW/CD16A transfectants were cultured as described previously. […] The transient transfections were performed using the calcium phosphate method as described in Example 1 and were used for flow cytometric staining and analysis two days after transient transfection. Flow cytometric staining and analysis was performed as essentially described before.

[4] = molecular target: T7, human CD16B (NA-2 allele) on stably transfected HEK-293 cells (293/CD16B) (human, UniProt O75015 17-200); test: flow cytometry on 293/CD16B cells; scFv, anti-hexa His MAb 13/45/31-2, FITC goat anti-mouse IgG; MFI minus secondary reagents alone
T7 construct: whole, on cells
Method: as §3, §4

[5] = molecular target: T8, human CD16A-Fc^48R/158V fusion protein (human, UniProt P08637 17-208, limits assumed); test: SPR, steady state analysis (column Keq)
T8 construct: Secreted soluble fusion made in HEK-293 cells; also called CD16-Fc; CD16A Fc-fusion protein; not shown: Fc portion of human IgG1
Method: (§5) The affinity constants (KD values) of the scFv were determined by SPR using the BIAcore 2000 biosensor system (Amersham-Pharmacia). The CD16A-Fc fusion protein and BSA used as a negative control were immobilized on the carboxymethyldextran-coated sensor chip CM5 using conventional NHS/EDC chemistry for the amine coupling procedure (BIAcore). Purified scFvs were diluted in HBS-EP buffer (BIAcore, Uppsala, Sweden). Binding data was generated by passing varying concentrations of the scFv antibodies (100 nM, 200 nM, 400 nM, 800 nM and 1600 nM) over the immobilized antigen. […] All SPR measurements were performed at a constant flow rate of 20 μL/min in HBS-EP buffer at 25° C. Each injected sample (100 μl) was in contact with antigen for 5 minutes. The dissociation was followed for 30 minutes. After each cycle, the surface of the sensor chip was flushed with HBS-EP buffer. Signals from the control channel coated with BSA were automatically subtracted. Kinetic constants were calculated according to the 1/1 Langmuir binding model using the BIAevaluation version 3.0 software (BIAcore).

[6] = molecular target: T8, human CD16A-Fc^48R/158V fusion protein; test: SPR, BIAcore 2000, CD16A-Fc immobilized on CM5, 1:1 Langmuir
Method: as §5

[7] = molecular target: T8, human CD16A-Fc^48R/158V fusion protein; test: SPR, kinetic and steady state analysis
Method: as §5

[8] = molecular target: T8, human CD16A-Fc^48R/158V fusion protein; test: SPR, BIAcore 2000, CD16A-Fc immobilized on CM5, koff/kon
Method: as §5

[9] = molecular target: T8, human CD16A-Fc^48R/158V fusion protein; test: SPR, BIAcore 2000, antigen immobilized, koff/kon
Method: as §5

[10] = molecular target: T9, commercially available recombinant CD16B (Allele NA-2; BSA free; RD Systems) (UniProt O75015 17-200, limits assumed); test: ELISA on recombinant CD16B coated at 80 nM; scFv detected with anti-c-Myc-HRP (10 µg/ml)
T9 construct: also called recombinant CD16B-Fc
Method: (§6) FIG. 3: ELISA on recombinant CD16A-Fc and CD16B. Recombinant CD16A-Fc and CD16B proteins were coated at 80 nM in 0.1 M NaHCO₃, pH 8.8. Wells were blocked with PBS, 2% skimmed milk. The binding of the scFv to the recombinant proteins and to gp34-Fc (negative control) was detected using an anti-c-Myc-HRP conjugate (10 μg/ml). […] Coated recombinant CD16B was directly detected by staining with an anti-His-HRP (1 μg/mL) and coating of the Fc-Fusion proteins was tested by an anti-human IgG-HRP conjugate (0.5 μg/mL). As HRP-substrate, 50 μL of TMB were used. After termination of the reaction with 50 μL 0.5 M H₂SO₄, absorbance was measured at 450 nm.
(§7) In order to generate further supporting data concerning the CD16A specificity of the scFvs, an ELISA was performed using the CD16A-Fc fusion protein (Example 1) and commercially available recombinant CD16B-Fc (Allele NA-2; BSA free; RD Systems). A gp34-Fc fusion protein was used as a negative control. The recombinant proteins were coated overnight at a concentration of 80 nM in 100 mM NaHCO₃ at pH 8.8.
(§8) Detection of scFv bound to the recombinant proteins was carried out by using an anti-c-myc-HRP conjugate (10 μg/ml). […] Binding to the recombinant CD16B was tested by directly staining with anti-His-HRP (1 μg/mL) and binding to the Fc-Fusion proteins was tested by an anti-human IgG-HRP conjugate (0.15 μg/mL).

[11] = molecular target: T8, human CD16A-Fc^48R/158V fusion protein; test: SPR, BIAcore 2000, antigen immobilized
Method: as §5

[12] = molecular target: T8, human CD16A-Fc^48R/158V fusion protein; test: surface plasmon resonance
Streptavidin = molecular target: T10, Streptavidin (UniProt P22629 37-163, limits assumed); test: ELISA on coated streptavidin; periplasmic extract, anti-Penta His-HRP
T10 construct: also called streptavidin alone

NKp46-Fc [13] = molecular target: T5, NKp46-Fc; test: Western blot on NKp46-Fc
Method: For further characterization all of the anti-CD16A scFv were tested for binding in Western Blot on recombinant CD16A-Fc and NKp46-Fc.
The proteins were transferred on a nitrocellulose membrane by electroblotting. After staining with Ponceau S, the membrane was cut into strips of 5 mm width. Each nitrocellulose strip was individually incubated with scFv (4 μg/ml) in PBS, 0.1% tween, 2% skimmed milk. Detection was carried out with the anti-Penta His HRP-conjugate (1 μg/mL) using diaminobenzidine (DAB) as a peroxidase substrate. […] As an additional positive control, a goat anti-human IgG HRP-conjugate (0.16 μg/mL) was used for detection of the Fc portion of the fusion proteins.

[14] = molecular target: T9, commercially available recombinant …; test: ELISA, recombinant CD16B coated at 80 nM
Method: as §6, §7, §8

T8 sequence (P08637 17-208 L66R/F176V limits assumed): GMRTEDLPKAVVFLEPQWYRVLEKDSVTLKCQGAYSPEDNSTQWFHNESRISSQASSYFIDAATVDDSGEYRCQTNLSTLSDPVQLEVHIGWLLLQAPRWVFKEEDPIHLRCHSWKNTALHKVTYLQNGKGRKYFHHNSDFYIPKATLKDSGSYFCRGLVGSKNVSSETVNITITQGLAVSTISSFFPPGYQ
T5 sequence (O76036 22-258 limits assumed): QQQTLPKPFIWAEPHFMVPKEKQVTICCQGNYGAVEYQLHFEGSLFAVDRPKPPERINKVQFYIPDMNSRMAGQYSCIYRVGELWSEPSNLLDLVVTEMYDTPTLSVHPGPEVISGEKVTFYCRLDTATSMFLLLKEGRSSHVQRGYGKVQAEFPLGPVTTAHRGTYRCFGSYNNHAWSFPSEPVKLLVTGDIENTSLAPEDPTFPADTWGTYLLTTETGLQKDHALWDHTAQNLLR
T7 sequence (O75015 17-200 N65S): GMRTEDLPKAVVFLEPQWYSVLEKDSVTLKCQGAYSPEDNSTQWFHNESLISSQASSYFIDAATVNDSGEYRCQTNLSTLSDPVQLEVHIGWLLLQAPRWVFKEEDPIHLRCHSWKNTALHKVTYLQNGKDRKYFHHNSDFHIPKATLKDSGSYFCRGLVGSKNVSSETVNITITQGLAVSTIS
T9 sequence (O75015 17-200 N65S limits assumed): as the sequence (O75015 17-200 N65S) above
T6 sequence (O76036 other isoform, or with tags, fused parts or gaps limits assumed): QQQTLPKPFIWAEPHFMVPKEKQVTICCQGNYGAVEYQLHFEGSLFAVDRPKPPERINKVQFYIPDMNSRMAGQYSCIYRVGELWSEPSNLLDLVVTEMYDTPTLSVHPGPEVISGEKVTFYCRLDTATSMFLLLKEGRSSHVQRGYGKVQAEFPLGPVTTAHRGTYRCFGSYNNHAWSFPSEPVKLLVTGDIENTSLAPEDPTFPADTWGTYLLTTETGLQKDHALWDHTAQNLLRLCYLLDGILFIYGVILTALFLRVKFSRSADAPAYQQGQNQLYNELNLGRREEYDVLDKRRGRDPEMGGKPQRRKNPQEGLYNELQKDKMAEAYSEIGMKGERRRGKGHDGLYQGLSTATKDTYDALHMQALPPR
T1 sequence (O75015 17-200): as the sequence (O75015 17-200 N65S) above, with S49N counted along it
T10 sequence (P22629 37-163 limits assumed): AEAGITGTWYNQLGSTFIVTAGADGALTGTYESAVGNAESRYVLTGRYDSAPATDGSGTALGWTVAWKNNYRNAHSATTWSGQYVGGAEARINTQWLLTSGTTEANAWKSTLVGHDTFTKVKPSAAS
T3 sequence (O75015 17-200 N65S/A78D): as the sequence (O75015 17-200 N65S) above, with A62D counted along it
T2 sequence (O75015 other isoform, or with tags, fused parts or gaps): as the sequence (O75015 17-200 N65S) above, with S20R, S49N, N66D, I90V counted along it
T4 sequence (O75015 17-200 N65S): as the sequence (O75015 17-200 N65S) above

Binder | binding result [1] | binding result (CD16B-Fc^NA1) | binding result (CD16B-Fc^SH) | binding result (CD16B-Fc^NA2) | binding result (NKp46-Fc [2]) | binding result [3] | binding result [4] | Kd [5] [nM] | koff [6] [s⁻¹] | kon [6] [M⁻¹ s⁻¹] | fold improvement of affinity over parental clone 50NI [7] [fold] | Kd [8] [nM] | Kd [9] [nM] | binding result [10] | koff [11] [s⁻¹] | kon [11] [M⁻¹ s⁻¹] | Kd [12] [nM] | binding result (Streptavidin) | binding result (NKp46-Fc [13]) | binding result [14]
B1 | no binding (tested: 50 µg/mL) | no binding (tested: 4 µg/ml) | no binding (tested: 4 µg/ml) | no binding (tested: 4 µg/ml) | no binding (tested: 4 µg/ml) | no binding (tested: 50 µg/mL) | no binding (tested: 50 µg/mL) | 203 | 0.0063 | 56000 | > 20 | 113 | 61.7 | no binding (tested: not given) | 0.00342 | 55400 | ~50 |  |  | 
B2 | no binding (tested: 50 µg/mL) |  |  |  |  | no binding (tested: 50 µg/mL) | no binding (tested: 50 µg/mL) | 2560 | 0.0217 | 17600 |  | 1230 |  |  |  |  |  | no binding | no binding (tested: 4 µg/ml) | no binding
